B1: 1G11 (antibody, V domains shown)
VH: QVQLQQSGDDLVKPGASVKLSCKASGYTFTSYYINWIKQRPGQGLECIGRIAPGNTYYNEIFKGKAILTVDTSSSTAYIQLSSLSSEDSGVYFCARRGYEGALDYWGQGTSVTVSS
VL: DIVLTQSPATLSVTPGDSVSLSCRASQRISNNLHWYQQKSHESPRLLIKYVSQSISGIPSRFSGSGSGTDFTLSINSVETEDFGMYFCQQSNSWPLTFGAGTKLELKR
B2: Humanised 1G11 (antibody, human IgG1, kappa, V domains shown)
VH: QVQLVQSGAEVKKPGSSVKVSCKASGYTFTSYYINWVRQAPGQGLESMGRIAPGNTYYNEIFKGRVTITADKSTSTAYMELSSLRSEDTAVYYCARRGYEGALDYWGQGTLVTVSS
VL: EIVLTQSPATLSLSPGERATLSCRASQRISNNLHWYQQKPGQAPRLLIKYVSQSISGIPARFSGSGSGTDFTLTISSLEPEDFAVYYCQQSNSWPLTFGQGTKLEIKR
notes: Straight graft of 1G11 CDRs with serine at Kabat position 47 of the heavy chain (H7, Lo1); human IgG1 Fc with L235A and G237A (EU numbering), Fc-disabled; also called humanised 1G11 (H7, Lo1); copies: 2 + 2
B3: 3A3 (antibody, mouse IgG1, kappa, V domains shown)
VH: QVQLQQSGAELAKPGASVKMSCKASGYTFSSYWMHWVKQRPGQGLEWIGYINPSTGYTDYNQKFKDKATLTADKSSNTAYMQLSSLTSDDSAVYYCARSRAARYWGQGTTLTVSS
VL: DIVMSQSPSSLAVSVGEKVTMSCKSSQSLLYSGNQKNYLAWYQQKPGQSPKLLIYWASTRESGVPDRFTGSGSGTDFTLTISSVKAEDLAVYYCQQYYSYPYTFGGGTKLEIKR
B4: 8E5 (antibody, mouse IgG1, kappa, V domains shown)
VH: EVQLVESGGDLVKPGGSLKLSCAASGFTFSTYGMSWVRQTPDKGLEWVATVSTGGTYTYYPDSVKGRFTISRDNAKNTLYLQMSSLKSEDTAMYYCARGGYSFAYWGQGTLVTVSA
VL: ENVLTQSPAIMSASPGEKVTMTCRASSSVSSSYLHWYQQKSGVSPKLWIYSTSNLASGVPARFSGSGSGTSYSLTISSVEAEDAATYYCQQYSGYPLTFGAGTKLELKR

Assays:
[1] = biological target: T1, human full-length TrkB receptor (human, UniProt Q16620 32-822); test: cell-based or functional assay
[2] = biological target: T1, human full-length TrkB receptor; test: cell-based or functional assay; remark: listed apart in the source
[3] = biological target: T1, human full-length TrkB receptor; test: cell-based or functional assay; remark: listed apart in the source
rat TrkB receptor = biological target: T2, rat TrkB receptor (rat, UniProt Q63604 32-821); test: method not detailed
T2 construct: whole, on cells; also called rodent TrkB

mouse TrkB receptor = biological target: T3, mouse TrkB receptor (mouse, UniProt P15209 32-821); test: method not detailed
T3 construct: whole, on cells; also called murine TrkB; rodent TrkB
T3 sequence (P15209 32-821): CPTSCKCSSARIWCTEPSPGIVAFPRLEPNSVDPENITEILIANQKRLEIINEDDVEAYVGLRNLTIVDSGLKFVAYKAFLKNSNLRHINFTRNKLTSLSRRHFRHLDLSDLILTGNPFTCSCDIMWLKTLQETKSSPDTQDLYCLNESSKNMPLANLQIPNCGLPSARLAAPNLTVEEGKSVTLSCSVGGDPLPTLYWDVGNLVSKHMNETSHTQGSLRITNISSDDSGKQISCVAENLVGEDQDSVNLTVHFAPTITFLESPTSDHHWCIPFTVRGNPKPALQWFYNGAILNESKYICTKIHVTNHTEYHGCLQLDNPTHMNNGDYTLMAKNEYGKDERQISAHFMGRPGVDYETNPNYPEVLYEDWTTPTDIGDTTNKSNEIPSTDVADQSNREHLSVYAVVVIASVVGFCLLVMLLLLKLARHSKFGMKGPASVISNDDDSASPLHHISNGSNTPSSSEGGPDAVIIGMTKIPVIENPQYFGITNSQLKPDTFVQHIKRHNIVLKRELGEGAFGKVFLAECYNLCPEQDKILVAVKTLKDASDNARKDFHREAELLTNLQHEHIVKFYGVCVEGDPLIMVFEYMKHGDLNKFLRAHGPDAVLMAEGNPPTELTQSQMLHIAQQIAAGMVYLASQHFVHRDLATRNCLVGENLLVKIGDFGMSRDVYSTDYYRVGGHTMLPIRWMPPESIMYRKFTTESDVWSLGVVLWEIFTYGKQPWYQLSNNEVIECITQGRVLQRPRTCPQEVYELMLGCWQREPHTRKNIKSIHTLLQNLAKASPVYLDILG

T1 sequence (Q16620 32-822 limits assumed): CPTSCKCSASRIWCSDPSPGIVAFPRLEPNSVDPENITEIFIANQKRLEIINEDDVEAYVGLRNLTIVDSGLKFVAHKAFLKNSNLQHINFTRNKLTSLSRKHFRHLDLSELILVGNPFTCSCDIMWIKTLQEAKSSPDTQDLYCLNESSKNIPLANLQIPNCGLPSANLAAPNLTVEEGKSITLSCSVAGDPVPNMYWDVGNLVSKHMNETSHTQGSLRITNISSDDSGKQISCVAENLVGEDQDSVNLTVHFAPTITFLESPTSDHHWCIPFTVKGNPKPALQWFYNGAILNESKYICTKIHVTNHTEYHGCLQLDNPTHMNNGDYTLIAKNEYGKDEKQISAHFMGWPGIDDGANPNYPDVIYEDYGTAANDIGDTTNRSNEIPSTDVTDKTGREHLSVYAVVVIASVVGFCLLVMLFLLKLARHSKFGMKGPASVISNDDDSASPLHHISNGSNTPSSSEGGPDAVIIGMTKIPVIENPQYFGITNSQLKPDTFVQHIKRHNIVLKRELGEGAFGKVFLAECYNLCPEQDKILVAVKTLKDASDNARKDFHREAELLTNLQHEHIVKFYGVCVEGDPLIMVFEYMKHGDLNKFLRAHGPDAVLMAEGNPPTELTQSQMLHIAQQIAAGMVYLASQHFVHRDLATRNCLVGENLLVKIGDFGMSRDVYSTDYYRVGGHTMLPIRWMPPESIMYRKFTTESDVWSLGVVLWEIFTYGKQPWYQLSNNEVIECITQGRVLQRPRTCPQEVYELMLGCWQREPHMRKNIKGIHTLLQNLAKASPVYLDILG
T2 sequence (Q63604 32-821): as the sequence (P15209 32-821) above, with T3M, S9T, A10T, V32I, R63K, S84G, M153T, L185I, S394T, S770N counted along it

| Binder | Activation of TrkB (pTrkB, Y515), EC50 [1] [nM] | Potentiation of BDNF-induced agonism of TrkB (pTrkB, % of BDNF alone) [1] [%] | EC50 (read off the curve); pTrkB relative activity in the presence of 10 nM BDNF [2] [nM] | levels of phosphorylated TrkB in CHO-K1 cells, EC50 [3] [nM] | binding result (rat TrkB receptor) | binding result (mouse TrkB receptor) | cell survival, PC12 cells expressing human TrkB, EC50 [3] [nM] | neurite outgrowth, PC12 cells expressing human TrkB, EC50 [3] [nM] |
| --- | --- | --- | --- | --- | --- | --- | --- | --- |
| B1 | 3.1 | ~130 | ~10 |  |  |  |  |  |
| B2 |  |  |  | 0.65 | binds | binds |  |  |
| B3 |  | ~160 | ~0.7 |  |  |  | 0.006 |  |
| B4 |  | ~120 |  |  |  |  | 0.09 | 1.58 |

Reference: patent US20200165345A1 (GlaxoSmithKline, published 2020)
